Common to all, as to assay: EIA, captured mAb + biotin peptide
The target in test [1] is T1, HCV bt-151-171 (Peptide 3, HCVc 151-171) (Hepatitis C virus (numbering per HCV-1), biotin (carboxy-terminal per; N-terminal per)).
T1 peptide: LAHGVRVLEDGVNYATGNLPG

Test [2] concerns the target T2, HCV bt-141-161 (Peptide 2, HCVc 141-161) (Hepatitis C virus (numbering per HCV-1), biotin (carboxy-terminal per; N-terminal per)).
T2 peptide: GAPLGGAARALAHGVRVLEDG

Test [3] concerns the target T3, HCV bt-134-154 (Peptide 1, HCVc 134-154) (Hepatitis C virus (numbering per HCV-1), biotin (carboxy-terminal per; N-terminal per)).
T3 peptide: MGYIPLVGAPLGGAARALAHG

Experimental findings from US20170052184A1 (published 2017) are described below.

B1: HCV 208B-178 (antibody, V domains shown)
VH: DVKLVESGGGLVKLGGSLKLSCAASGFTFSSYYMSWVRQTPEKRLELVAAINSNGGSTYYPDTVKGRFTISRDNAKNTLYLQMSSLKSEDTALYYCARHGGLGRRDWYFDVWGAGTTVTVSS
VL: DIVLTQSPASLAVSLGQRATISCRASESVDNYGISFMHWYQQKPGQPPKLLIYRASNLESGIPARFSGSGSRTDFTLTINPVETDDVATYYCQQSNKDPFTFGSGAKLEIKR
B1: the “Reactivity (OD 492 nm)” value in test [1] came to 1.69 OD units; in test [2], 0.07 OD units; in test [3], 0.1 OD units.

B2: HCV 208A-210 (antibody, V domains shown)
VH: QVQLQQSGPELVKPGASMRISCKASGYTFTSYYVHWIKQRPGQGLEWIGCIYPGDVNTDYNEKFKGKATLTADKSSSTAYMQVSTLTSEDSAIYFCVLYYYGSFAYWGQGTLVTVSA
VL: EIVLTQSPAITAASLGQNVTITCRASSSVSYMHWYRQKSGTSPQLWIYEISRRASGVPARFRASGSGTSYSLTISSMEAEDAAIYYCQQWNYPLTFGAGTKLEVKR
B2: the “Reactivity (OD 492 nm)” value in test [1] is 0.05 OD units; in test [2], 1.15 OD units; in test [3], 0.06 OD units.

B3: HCV 208B-353 (antibody, V domains shown)
VH: EVQLVESGGDLVKPGGSLKLSCAASGFTFNHYGMSWVRQPPDKRLEWVATISSGGGYTYYPDSVKGRFTISRDNAKDTLSLQMSSLRSGDTAVYYCASLYGSLFAYWGQGTLVTVSA
VL: DIVMTQSQKFMSTTVGDRVRVTCKASQNVGTAVAWYQQKPGQSPKLLIYSASNRYTGVPDRFTGSGSGTDFTLTITNMQSEDLADYFCQQYSTYPLTFGSGAKLEIKR
On to B3, for which the “Reactivity (OD 492 nm)” value stood at 0.07 OD units in test [1], 2.47 OD units in test [2] and 0.07 OD units in test [3].

B4: HCV 208B-672 (antibody, V domains shown)
VH: EVKLVESGGSLVQPGGSLKLSCAASGFNFNTYAMSWVRQTPEKRLEWVAYISNGGGNTYYVDTVKGRFTISRDNAKNTLYLRMSSLKSEDTAMYYCARHGLYWGYSMDYWGQGTSVTVSS
VL: DIQMTQSPSSLSASLGERVSLTCRASQDIGGSINWLQQEPDGTIKRLIYATSSLDSGVPKRFSGSRSGSDYSLTISSLESEDFVDYYCLQYASSPPTFGGGTKLEIKR
For the molecule B4, the “Reactivity (OD 492 nm)” value in test [1] was 0.1 OD units; in test [2], 2.79 OD units; in test [3], 0.08 OD units.

B5: HCV 208B-327 (antibody, V domains shown)
VH: EVQLVESGGGLVKPGGSLKLSCAASGFTFSDSYMYWVRQTPDQRLEWVATISDGGSYTFYPDSVKGRFTISRDNAQNNLYLQMSSLKSEDTAMYYCASPHAGYFGWFAYWGRGTLVTVSA
VL: DIVMTQAAFSNPVTPGTSVSISCRSSKSLLHSNGITYLYWYLQKPGQSPQLLIYQMSKIASGVPDRFRSSGSGTDFTLRISRVEAADVGVYYCAQNLELPWTFGGGTKLEIKR
In the case of B5, the “Reactivity (OD 492 nm)” value came to 0.49 OD units in test [1], 0.05 OD units in test [2] and 0.07 OD units in test [3].

B6: HCV 208B-911 (antibody, V domains shown)
VH: QVHLQQPGAELVRPGVSVKLSCKASGYTFTTYSINWMKQRPGQGLEWIGNIYPSTSHTNYNQKFRDKATMTVDKSSSTAYMQLSSPTSEDSAVYYCTINAYSMDYWGQGTSVTVSS
VL: QIVLTQSPEIMSASPGEKVTITCSASSSVSFMYWFQQKPGTSPKLWIYITSNLASGVPTRFSGSGSGTSYSLTISRMEAEDAATYYCQQRSSFPYTFGGGTKLEMKR
B6: the “Reactivity (OD 492 nm)” value came out at 0.71 OD units in test [1], 0.09 OD units in test [2] and 0.09 OD units in test [3].

B7: HCV 208B-517 (antibody, V domains shown)
VH: QVQLKQSGPGLVQPSQSLSITCTVSGFSLITHGVHWVRQSPGKGLEWLGVIWSGGSTDYNAAFISRLSISKDTSKSQVFLKMSSLQADDTAIYYCARNGGATAFDYWGQGTTLTVSS
VL: DIVMTQSPATLSVTPGDRVSLSCRASQSISDYLHWYQQKSHESPRLLIKYASQSISGIPSRFRGSGSGSHFTLSINSVEPEDVGVYYCQNGHSFPWTFGGGTKLEIKR
B7: the “Reactivity (OD 492 nm)” value in test [1] was 0.7 OD units; in test [2], 0.41 OD units; in test [3], 0.1 OD units.

B8: HCV 208B-822 (antibody, V domains shown)
VH: QVQLKQSGPGLVQPSQSLSITCTVSGFSLITYGVHWVRQSPGKGLEWLGVIWGGGSTGYNAAFVSRLNITKDNSKSQVFFKMNSLQPDDTAIYYCARNGGATVFDYWGQGTTLTVSS
VL: DIVMTQSPATLSVTPGDRVSLSCRASQTISDYLHWYQQKSHESPRLLIKYASQSISGIPSRFSGSGSGSHFTLSINSVEPEDVGVYYCQNGHSFPWTFGGGTKLEIKR
For the molecule B8, the “Reactivity (OD 492 nm)” value stood at 0.07 OD units in test [1], 1.35 OD units in test [2] and 0.08 OD units in test [3].

B9: HCV 208B-189 (antibody, V domains shown)
VH: QVHLQQSGAELAKPGASVQMSCKASGYTFTANKMHWARQRPRQGLEWIGYIDPASGYTEYNQKIKDRATLTADKSSSTAYMQLSSLTSEDSAVYYCTNFAYWGQGTLVTVST
VL: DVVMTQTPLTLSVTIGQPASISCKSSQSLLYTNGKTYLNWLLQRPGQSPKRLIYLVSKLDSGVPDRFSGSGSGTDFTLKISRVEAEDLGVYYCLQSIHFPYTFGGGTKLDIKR
With B9, the “Reactivity (OD 492 nm)” value in test [1] amounted to 3.95 OD units; in test [2] it was 0.15 OD units; in test [3], 0.55 OD units.

B10: HCV 208B-547 (antibody, V domains shown)
VH: QVQLQQSGAELAKPGASVKMSCKASGYTFTSNKMHWAKQRPGQGLEWIGYIDPSSGYTEYNQKIKDKATLTADKSSSTAYMQLSSLTSEDSAVYYCTNFAYWGQGTLVTVSA
VL: EVVLTQSPAITAASLGQKVTITCRASSSVSYMHWYRQKSGTSPQPWIYEISTLASGVPTRFRASGSGTSYSLTISSMEAEDAAIYYCQQWNYPLTFGAGTKLELKR
For the molecule B10, the “Reactivity (OD 492 nm)” value in test [1] is 2.9 OD units; in test [2], 0.08 OD units; in test [3] it was 0.12 OD units.

B11: HCV 208B-515 (antibody, V domains shown)
VH: QVQLQQPGAELVKPGASLKLSCRASGYTFTSYWIHWVKQRPGQGLEWIGEIDPSDSYTNYNQKFKGKATLTVDKSSRAAYMQLSSLTSEDSAVYYCARHYYGVFDSWGQGTKLTVSS
VL: QIVFTQYPAIMSASLGERVTMTCTASSSVTSSYLHWFQQKPGSSPKLWIYSTSNPGSGVPARFSGRGSGTSYSLSISSMEAEDAATYYCLQFHRSPWTFGGGTKLEIRR
As for B11, the figures for the “Reactivity (OD 492 nm)” value in test [1], in test [2] and in test [3] were 0.06 OD units, 0.13 OD units and 0.51 OD units, respectively.

B12: HCV 208B-471 (antibody, V domains shown)
VH: QGQLQQSGPVLVKPGASEILYCKTSGFTFSSTYISWLKQKPGQSLEWIAWIYAGTGATNYNQKFTGKAQLTVDASSNTAYMHFSGLTPEDSAIYYCAISGAGVYWGQGTLVTVSA
VL: DVVMTQTPLSLPVSLGDQASISCRSSQSLLHSNGNTYLEWYLQKPGQSPNLLIYNVSNRFSGVPDRFSGSGSGTDFALKISRVGAEDLGVYYCFQGSHVPLTFGAGTKLELKR
As for B12, the “Reactivity (OD 492 nm)” value in test [1] is 0.08 OD units; in test [2] it was 0.11 OD units; in test [3], 1.62 OD units.

B13: HCV 208B-793 (antibody, V domains shown)
VH: EVKLVESGGGLVQPGGSLKLSCAASGFTFSSYAMSWVRQTPERRLEWVTYISNGGGSTYYSDTVKGRFTFSRDNAKNTLYLQMSSLKSEDTAMYYCARHGLGRTGFASWGQGTLVTVSA
VL: DIVMTQSHKFMSTSVGDRVSITCKASQDVGTAVAWYQQKPGQSPKLLIYWASTRHTGVPDRFTGSGSGTDFTLTISNVQSEDLADYFCQQYSNYLTFGAGTKLEVKR
For the molecule B13, the “Reactivity (OD 492 nm)” value in test [1] is 0.09 OD units; in test [2], 0.72 OD units; in test [3], 0.09 OD units.

B14: HCV 208B-395 (antibody, V domains shown)
VH: QVQLQQSGAGLAKPGASVKMSCKASGYTFTANKMHWTKQRPGQGLEWIGYIDPSSGYTQYNHKIQDKATLTADTSSSTAYMQLSSLTFEDSAVYYCTNFAYWGQGTLVTVSA
VL: DIVLTQSPATLSVTPGDRVSLSCRASQRIYNYLHWYQQKSHESPRLLIKYASQSISGIPSRFSGSGSGTDFILTINSVETEDFGMYFCQQSNSWPLTFGAGTKLELRR
With B14, the “Reactivity (OD 492 nm)” value amounted to 3.69 OD units in test [1], 0.13 OD units in test [2] and 0.54 OD units in test [3].

B15: HCV 208B-826 (antibody, V domains shown)
VH: DVQLVESGGGLVQAGGSRKLSCAASGFPFSSFGMHWVRQAPEKGLEWVASISSRTSKIYYADNLKGRFTISRDNPKNTLFLQMTSLGSEDTAMYYCVRSVFGNSYWFFDVWGAGTTVTVSS
VL: DIVLTQSPATLSVTPGDRVSLSCRASQRIYNYLHWYQQKSHESPRLLTKYASQSISGIPSRFSGSGSGTDFILTINSVETEDFGMYFCQQSNSWPLTFGAGTKLELRR
As to B15, the entries for the “Reactivity (OD 492 nm)” value in test [1], in test [2] and in test [3] were 0.08 OD units, 1.35 OD units and 0.53 OD units, respectively.

B16: HCV 208A-207 (antibody, V domains shown)
VH: QGQLQQPGAEFVKPGASLKLSCRASGYTFTSYWIHWVKQRPGQGLEWIGEIDPSDSYINQNQKFRGKATLTVDKSSSTAYMELSGLTSEDSAVYYCARHYYGVLDSWGQGTTLTVSS
VL: DIVLTQSPATLSVTPGDRVSLSCRASQRIYNYLHWYQQKSHESPRLLTKYASQSISGIPSRFSGSGSGTDFILTINSVETEDFGMYFCQQSNSWPLTFGAGTKLELRR
Consider B16, for which the “Reactivity (OD 492 nm)” value in test [1] was 0.08 OD units; in test [2], 0.17 OD units; in test [3] it was 1.24 OD units.

B17: HCV 208B-612 (antibody, V domains shown)
VH: EVQLQQSGPELVKPGASVKMSCKASGYRFTSYVMHWVRQKPGQGLEWIGYIDPHNDDTKYSEKFRGKATLTSDKSSTTAYMELSSLTSEDSAVYYCVRYSYDRDYSPMDYWGQGTSVTVSS
VL: QIVLTQSPTLMSASPGEKVTMTCSASSTVTYIYWYQQKPGSSPRLWMYDTFNLVSGVPARFSGSRSGTSYFLTISSMEGEDAATYYCQQYSDSPYTFGGGTKLEIKR
Turning to B17, the “Reactivity (OD 492 nm)” value in test [1] was found to be 0.15 OD units; in test [2], 3.04 OD units; in test [3], 3.05 OD units.
